± gives the half width of the 95% confidence interval.
Tests used:
[1] = folding stability dG unfold from trypsin proteolysis; higher = more stable
Experimental: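 Folding stability of de novo designed mini-proteins (<80 aa, no Cys; designed by TrROS, TrMRF, ProteinMPNN and the joint model) was measured by cDNA display proteolysis with trypsin and chymotrypsin. Each protease was used at 11 concentrations in a threefold dilution series plus a no-protease condition. K50 was inferred by Bayesian fitting of sequencing counts, and dG unfold was derived against a sequence-predicted unfolded-state K50 (Tsuboyama et al. method). Sequences shown include variable-length N-terminal GS-type padding (SAGGSAGG...) inside a display construct carrying a PA tag. Rows were kept only if the AF2 dimer inter-PAE was >15, to exclude likely homo-oligomers.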

[2] = folding stability dG unfold (combined trypsin and chymotrypsin); higher = more stable
Procedure, shortened: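 Bayesian fitting of sequencing counts gave K50 for each design. Unfolding free energy followed by setting this against a sequence-predicted unfolded-state K50 and a shared folded-state K50, either per protease or with trypsin and chymotrypsin combined. The designs, under 80 residues and lacking cysteine, were digested in a PA-tagged cDNA display format at 11 threefold-diluted protease concentrations and without protease, and only those with AlphaFold2 dimer inter-PAE above 15 were kept.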

Row | Sequence | folding stability dG unfold [1] [kcal/mol] | folding stability dG unfold [2] [kcal/mol]
1 | SAGSTVEVLEERPLEDGSVLVRVRVDDAAPDGSPVAVVDVLVLPGGEAVMTFPDGTPVRLPLSELGLPPSAG [r5_137_JUSTAS] | 0.108 ± 0.14 | -0.319 ± 0.2
2 | SAGGSAGGSAGSLPEKLKEAFPDLGVTVTSVDPSGTVTVEVDGPEEVKEKVEKAVAEILKSAGGSAGGSAGG [r11_418_JUSTAS] | -0.576 ± 0.33 | < -1
3 | SAGGMKTTFTITHPDAEKAREALEKAVPSDLDVEPEFTPTPDGYTTTVTVPAEHPEVAAAALAAALASAGGS [r16_43_JUSTAS] | 0.0621 ± 0.09 | < -1
4 | SKEILEAEVEEILKLLPESLKPDVPRELVFPGVKITVTKYEPVDKNKGGKKPTTVVTIELPEGPVTIPLPSA [r9_279_JUSTAS] | 0.548 ± 0.034 | -0.531 ± 0.18
5 | SAGGSAGGSAKPLTVDEILKNLDFPPNMEIEDIEVDQDENEGKPVISIEMYSPGQPYRPTIVSAGGSAGGSA [r18_354_TrROS] | -0.151 ± 0.042 | < -1
6 | SAGGSAGGSAGMELAEEVARKGKPGTLVTFTPPGGRVQLATVRGDEVTPSGLSPDYSVTLTSAGGSAGGSAG [r3_244_JUSTAS] | -0.371 ± 0.26 | < -1
7 | SAGGSAEPPVKEIAEKLIKKSKKPIIATVVEKKKDGYLVTKVKYIPNTGKPIIKVKKITPEELKKKSAGGSA [r15_156_TrMRF] | 0.159 ± 0.097 | -0.785 ± 0.7
8 | SAGGSDLITTEETFVGPGGEITLRTTTVDPKTGKTTTTTTTIPVIKGPPSDPAKIEAELKKRGIPLSAGGSA [r2_304_JUSTAS] | -0.186 ± 0.12 | -0.799 ± 0.29
9 | SAGGSAGGSAGGTEEEALEKAERLAKELGVDLKDVKILNPPDKFEAVFTIPGTGENIKLSAGGSAGGSAGGS [r10_161_JUSTAS] | -0.505 ± 0.46 | -0.601 ± 0.97
10 | SAGGSAGGSATIKIKVPPGEPYMIRIRWPDGKSHEHNVPPGEEITIPPDNFDGITPIEIQPYSAGGSAGGSA [r18_210_TrROS] | 0.288 ± 0.19 | 0.11 ± 0.56
11 | SAKIPAEEIAEEIAENFGFEPVEVDEIDPDEGKIIIRFPGWQIEVEVDPEDGEIEIEMEFYDPEDGKPFSAG [r14_270_TrROS] | 0.46 ± 0.045 | -0.0386 ± 0.18
12 | AAVIPTPTAEPVKVETLSTEVSPSLFPSPAAGGPRVLRTVVTTKTTVAVQTEDAWVEVETTTTTTEVLPPES [r1_112_JUSTAS] | -0.546 ± 0.21 | < -1
13 | SAGGSAGGSSMPLTVEELLASVGPDKTATVLVPPGTSIPANITPLGTEPEGGWRTFAIPASLVSAGGSAGGS [r12_356_JUSTAS] | -0.137 ± 0.12 | -0.971 ± 0.25
14 | SAPVKDKNGKKREVEIHIWVPEEERKKNGTPEQIKWLARERARAAGLKPDRIKEVKIKIMPPEDMPEGFSAG [r14_446_TrROS] | -0.729 ± 0.54 | < -1
15 | SAGMTITKTEEFPKGPGSVTRTTVTLPNGKVVVEETITLEDPSVTKTVTKTIEPADGTVLETTTTTVPASAG [r5_108_JUSTAS] | 0.302 ± 0.16 | -0.418 ± 0.3
16 | SAGGDPGAEKIGTKTYPVGDKELTIETYRLPDPDELKVVVTDPTDGKTTPITVSLSEPPNIPVAELLSAGGS [r16_768_JUSTAS] | -0.276 ± 0.16 | < -1
17 | SAGGSAGGEPRELEAEVEVIEFPPTGVALAVIRVNDGAEPRLIPVPFDAPEDVTPEELAKKILGSAGGSAGG [r6_20_TrMRF] | -0.826 ± 0.63 | < -1
18 | SAGGMMKIKITFADGTTKEIELPEDVTEVTITYDEKTGKVTITVRLKNGETKTITIPADKITKIEIESAGGS [r16_658_TrROS_Hall] | 5.39 ± 0.7 | > 6
19 | SAGGSAGGSAGKSPSESEVVITPETGVVEENGVKIKVTLTITTYSPSSTVTSTTKDPKLLSAGGSAGGSAGG [r11_551_JUSTAS] | -0.0836 ± 0.045 | -0.356 ± 0.15
20 | SAGGSAMKTLTATFSDGRSVTVEPENRTVTVSTPESSISTIPVPPDVPEVTITTPSGVTITLTVDTSAGGSA [r2_385_JUSTAS] | 0.287 ± 0.083 | -0.107 ± 0.12

Source: the supplement of paper PMC12764529
